What was measured:
[1] = target: ROBO1 expressed on ROBO1-expressing HEK293 cells (ROBO1/pcDNA3.1, C-terminal V5 tag) (human) (UniProt Q9Y6N7); assay: cell-based or functional assay
[2] = target: ROBO1 expressed on ROBO1-expressing HEK293 cells (ROBO1/pcDNA3.1, C-terminal V5 tag) (human) (UniProt Q9Y6N7); assay: FACS on ROBO1-expressing HEK293 cells, signal intensity digitized

Chain of UniProt Q9Y6N7 (Q9Y6N7 26-1651): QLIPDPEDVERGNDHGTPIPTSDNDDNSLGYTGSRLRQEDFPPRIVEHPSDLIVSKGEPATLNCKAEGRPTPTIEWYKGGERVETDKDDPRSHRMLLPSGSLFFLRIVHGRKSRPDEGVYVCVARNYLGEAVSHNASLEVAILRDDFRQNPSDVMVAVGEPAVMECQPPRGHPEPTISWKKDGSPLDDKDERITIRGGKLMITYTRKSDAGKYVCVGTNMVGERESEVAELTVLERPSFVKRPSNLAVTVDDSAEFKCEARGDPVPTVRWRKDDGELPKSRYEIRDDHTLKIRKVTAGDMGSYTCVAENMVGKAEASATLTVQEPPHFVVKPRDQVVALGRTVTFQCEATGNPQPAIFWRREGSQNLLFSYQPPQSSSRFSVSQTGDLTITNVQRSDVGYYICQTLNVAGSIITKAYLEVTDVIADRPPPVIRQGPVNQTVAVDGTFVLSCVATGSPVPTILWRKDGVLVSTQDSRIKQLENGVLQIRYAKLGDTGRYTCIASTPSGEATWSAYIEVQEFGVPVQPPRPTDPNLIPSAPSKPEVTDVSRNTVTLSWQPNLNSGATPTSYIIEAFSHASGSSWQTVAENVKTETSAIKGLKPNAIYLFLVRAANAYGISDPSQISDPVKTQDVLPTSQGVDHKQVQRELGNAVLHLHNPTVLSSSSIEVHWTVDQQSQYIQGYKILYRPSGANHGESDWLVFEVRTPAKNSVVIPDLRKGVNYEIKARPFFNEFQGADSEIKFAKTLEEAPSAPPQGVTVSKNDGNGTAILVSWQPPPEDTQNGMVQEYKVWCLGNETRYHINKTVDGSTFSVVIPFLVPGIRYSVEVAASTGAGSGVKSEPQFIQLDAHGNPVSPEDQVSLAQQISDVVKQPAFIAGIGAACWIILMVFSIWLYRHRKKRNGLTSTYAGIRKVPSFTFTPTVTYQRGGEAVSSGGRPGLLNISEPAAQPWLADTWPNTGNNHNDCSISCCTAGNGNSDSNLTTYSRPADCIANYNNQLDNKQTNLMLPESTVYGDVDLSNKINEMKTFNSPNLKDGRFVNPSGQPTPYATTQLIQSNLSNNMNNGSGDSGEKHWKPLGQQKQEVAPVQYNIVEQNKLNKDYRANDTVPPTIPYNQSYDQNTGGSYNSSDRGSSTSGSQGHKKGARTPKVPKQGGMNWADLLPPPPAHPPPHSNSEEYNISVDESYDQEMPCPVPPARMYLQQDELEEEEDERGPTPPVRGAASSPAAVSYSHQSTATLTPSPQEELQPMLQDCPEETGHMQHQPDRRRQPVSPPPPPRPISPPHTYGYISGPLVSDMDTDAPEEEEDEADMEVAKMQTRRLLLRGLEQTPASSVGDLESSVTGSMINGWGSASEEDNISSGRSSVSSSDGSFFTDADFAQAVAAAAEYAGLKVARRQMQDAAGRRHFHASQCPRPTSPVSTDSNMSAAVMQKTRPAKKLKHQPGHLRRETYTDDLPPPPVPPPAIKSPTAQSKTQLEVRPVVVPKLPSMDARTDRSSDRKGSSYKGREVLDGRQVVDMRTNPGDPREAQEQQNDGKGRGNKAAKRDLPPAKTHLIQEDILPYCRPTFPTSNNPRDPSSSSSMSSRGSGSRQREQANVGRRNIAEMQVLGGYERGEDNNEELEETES

B1: B5209B (antibody, from another filing, mouse IgG2b)
scFv: MAEVQLVESGGGVVQPGGSLKLSCAASGFTFSTYDMSWVRQTPDKRLELVATINSNGGSTYYPDSVKGRFTSSRDNAKNILYLQMSSLKSEDTAMYYCAREALLRPPYYALDYWGQGTSVTVSSAGGGGSGGGGSGGGGSGGGGSDILDIQMTQSPASLSASVGETVTITCGASENIYGALTWYQRKQGKSPQLLIYGAINLADDKSSRFSGSGSGRQYSLKISSLHPDDVATYYCQNVLSTPFTFGSGTKLEIKAAGHHHHHH
[1]
  CDC (%), measured value at 0.1 ug/mL: 87.2%
[2]
  EC50: 3.1 nM
